# Measured values from PMC11186044, “Rationally Engineering pH Adaptation of Acid‐Induced Arginine Decarboxylase from Escherichia coli to Alkaline Environments to Efficiently Biosynthesize Putrescine” (Advanced Science, 2024).
# T1: SpeB (Escherichia coli, UniProt P60651)
# T1 construct: agmatinase; construct and assay details only in supplement
# T1 sequence (P60651 1-306): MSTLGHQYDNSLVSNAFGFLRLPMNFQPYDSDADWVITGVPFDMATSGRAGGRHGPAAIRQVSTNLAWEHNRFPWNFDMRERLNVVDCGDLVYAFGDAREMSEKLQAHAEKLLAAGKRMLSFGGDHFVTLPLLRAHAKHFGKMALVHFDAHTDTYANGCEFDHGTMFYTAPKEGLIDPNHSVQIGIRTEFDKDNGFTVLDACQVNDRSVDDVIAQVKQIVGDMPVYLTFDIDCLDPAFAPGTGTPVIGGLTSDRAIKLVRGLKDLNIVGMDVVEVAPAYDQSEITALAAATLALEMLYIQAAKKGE
# Molecular target: T1, SpeB
# Assay: agmatinase activity versus pH (details in supplement)
# Type: biochemical
# Conditions: alkaline pH preferred; enzyme preparation not given
row,Molecule,agmatinase activity versus pH (details in supplement)
1,N=C(N)NCCCCN [agmatine],"SpeB, agmatinase that catalyzes the synthesis of putrescine from agmatine"

# Substrate: N=C(N)NCCC[C@H](N)C(=O)O
# Assay: agmatine formation by HPLC, Michaelis-Menten fit
# Type: biochemical, Escherichia coli
# Conditions: pH 7.0, 37 °C, 0.5 mmol·L^−1 PLP, 2.5 mmol·L^−1 MgSO4, 5 mmol·L^−1 DTT
# Source text: agmatine formation by HPLC, Michaelis-Menten fit on AdiA
Molecule,Km [mM],kcat [s⁻¹],kcat/Km [M⁻¹ s⁻¹]
"AdiA (Escherichia coli K-12) (protein, recombinant full-length acid-induced arginine decarboxylase; homodecamer (five dimers) with PLP; plasmids in supplement) MKVLIVESEFLHQDTWVGNAVERLADALSQQNVTVIKSTSFDDGFAILSSNEAIDCLMFSYQMEHPDEHQNVRQLIGKLHERQQNVPVFLLGDREKALAAMDRDLLELVDEFAWILEDTADFIAGRAVAAMTRYRQQLLPPLFSALMKYSDIHEYSWAAPGHQGGVGFTKTPAGRFYHDYYGENLFRTDMGIERTSLGSLLDHTGAFGESEKYAARVFGADRSWSVVVGTSGSNRTIMQACMTDNDVVVVDRNCHKSIEQGLMLTGAKPVYMVPSRNRYGIIGPIYPQEMQPETLQKKISESPLTKDKAGQKPSYCVVTNCTYDGVCYNAKEAQDLLEKTSDRLHFDEAWYGYARFNPIYADHYAMRGEPGDHNGPTVFATHSTHKLLNALSQASYIHVREGRGAINFSRFNQAYMMHATTSPLYAICASNDVAVSMMDGNSGLSLTQEVIDEAVDFRQAMARLYKEFTADGSWFFKPWNKEVVTDPQTGKTYDFADAPTKLLTTVQDCWVMHPGESWHGFKDIPDNWSMLDPIKVSILAPGMGEDGELEETGVPAALVTAWLGRHGIVPTRTTDFQIMFLFSMGVTRGKWGTLVNTLCSFKRHYDANTPLAQVMPELVEQYPDTYANMGIHDLGDTMFAWLKENNPGARLNEAYSGLPVAEVTPREAYNAIVDNNVELVSIENLPGRIAANSVIPYPPGIPMLLSGENFGDKNSPQVSYLRSLQSWDHHFPGFEHETEGTEIIDGIYHVMCVKA",12.08 ± 0.86,3.54 ± 0.28,290
"AdiA (Escherichia coli K-12; E467K/H736E) (protein, recombinant full-length acid-induced arginine decarboxylase; homodecamer (five dimers) with PLP; plasmids in supplement) MKVLIVESEFLHQDTWVGNAVERLADALSQQNVTVIKSTSFDDGFAILSSNEAIDCLMFSYQMEHPDEHQNVRQLIGKLHERQQNVPVFLLGDREKALAAMDRDLLELVDEFAWILEDTADFIAGRAVAAMTRYRQQLLPPLFSALMKYSDIHEYSWAAPGHQGGVGFTKTPAGRFYHDYYGENLFRTDMGIERTSLGSLLDHTGAFGESEKYAARVFGADRSWSVVVGTSGSNRTIMQACMTDNDVVVVDRNCHKSIEQGLMLTGAKPVYMVPSRNRYGIIGPIYPQEMQPETLQKKISESPLTKDKAGQKPSYCVVTNCTYDGVCYNAKEAQDLLEKTSDRLHFDEAWYGYARFNPIYADHYAMRGEPGDHNGPTVFATHSTHKLLNALSQASYIHVREGRGAINFSRFNQAYMMHATTSPLYAICASNDVAVSMMDGNSGLSLTQEVIDEAVDFRQAMARLYKKFTADGSWFFKPWNKEVVTDPQTGKTYDFADAPTKLLTTVQDCWVMHPGESWHGFKDIPDNWSMLDPIKVSILAPGMGEDGELEETGVPAALVTAWLGRHGIVPTRTTDFQIMFLFSMGVTRGKWGTLVNTLCSFKRHYDANTPLAQVMPELVEQYPDTYANMGIHDLGDTMFAWLKENNPGARLNEAYSGLPVAEVTPREAYNAIVDNNVELVSIENLPGRIAANSVIPYPPGIPMLLSGENFGDKNSPQVSYLRSLQSWDHHFPGFEEETEGTEIIDGIYHVMCVKA",15.70 ± 0.87,29.2 ± 0.44,1860
"AdiA (Escherichia coli K-12; H736E) (protein, recombinant full-length acid-induced arginine decarboxylase; homodecamer (five dimers) with PLP; plasmids in supplement) MKVLIVESEFLHQDTWVGNAVERLADALSQQNVTVIKSTSFDDGFAILSSNEAIDCLMFSYQMEHPDEHQNVRQLIGKLHERQQNVPVFLLGDREKALAAMDRDLLELVDEFAWILEDTADFIAGRAVAAMTRYRQQLLPPLFSALMKYSDIHEYSWAAPGHQGGVGFTKTPAGRFYHDYYGENLFRTDMGIERTSLGSLLDHTGAFGESEKYAARVFGADRSWSVVVGTSGSNRTIMQACMTDNDVVVVDRNCHKSIEQGLMLTGAKPVYMVPSRNRYGIIGPIYPQEMQPETLQKKISESPLTKDKAGQKPSYCVVTNCTYDGVCYNAKEAQDLLEKTSDRLHFDEAWYGYARFNPIYADHYAMRGEPGDHNGPTVFATHSTHKLLNALSQASYIHVREGRGAINFSRFNQAYMMHATTSPLYAICASNDVAVSMMDGNSGLSLTQEVIDEAVDFRQAMARLYKEFTADGSWFFKPWNKEVVTDPQTGKTYDFADAPTKLLTTVQDCWVMHPGESWHGFKDIPDNWSMLDPIKVSILAPGMGEDGELEETGVPAALVTAWLGRHGIVPTRTTDFQIMFLFSMGVTRGKWGTLVNTLCSFKRHYDANTPLAQVMPELVEQYPDTYANMGIHDLGDTMFAWLKENNPGARLNEAYSGLPVAEVTPREAYNAIVDNNVELVSIENLPGRIAANSVIPYPPGIPMLLSGENFGDKNSPQVSYLRSLQSWDHHFPGFEEETEGTEIIDGIYHVMCVKA",15.27 ± 0.79,17.5 ± 0.55,1150
"AdiA (Escherichia coli K-12; E467K) (protein, recombinant full-length acid-induced arginine decarboxylase; homodecamer (five dimers) with PLP; plasmids in supplement) MKVLIVESEFLHQDTWVGNAVERLADALSQQNVTVIKSTSFDDGFAILSSNEAIDCLMFSYQMEHPDEHQNVRQLIGKLHERQQNVPVFLLGDREKALAAMDRDLLELVDEFAWILEDTADFIAGRAVAAMTRYRQQLLPPLFSALMKYSDIHEYSWAAPGHQGGVGFTKTPAGRFYHDYYGENLFRTDMGIERTSLGSLLDHTGAFGESEKYAARVFGADRSWSVVVGTSGSNRTIMQACMTDNDVVVVDRNCHKSIEQGLMLTGAKPVYMVPSRNRYGIIGPIYPQEMQPETLQKKISESPLTKDKAGQKPSYCVVTNCTYDGVCYNAKEAQDLLEKTSDRLHFDEAWYGYARFNPIYADHYAMRGEPGDHNGPTVFATHSTHKLLNALSQASYIHVREGRGAINFSRFNQAYMMHATTSPLYAICASNDVAVSMMDGNSGLSLTQEVIDEAVDFRQAMARLYKKFTADGSWFFKPWNKEVVTDPQTGKTYDFADAPTKLLTTVQDCWVMHPGESWHGFKDIPDNWSMLDPIKVSILAPGMGEDGELEETGVPAALVTAWLGRHGIVPTRTTDFQIMFLFSMGVTRGKWGTLVNTLCSFKRHYDANTPLAQVMPELVEQYPDTYANMGIHDLGDTMFAWLKENNPGARLNEAYSGLPVAEVTPREAYNAIVDNNVELVSIENLPGRIAANSVIPYPPGIPMLLSGENFGDKNSPQVSYLRSLQSWDHHFPGFEHETEGTEIIDGIYHVMCVKA",14.30 ± 0.64,15.2 ± 0.23,1060
